Reference: patent US20170342107A1
Square brackets hold non-standard residues; d marks the D form. Phe(4-I) = N[C@@H](Cc1ccc(I)cc1)C(=O)O

What was measured:
[1] = molecular target: mouse melanocortin-4 receptor (mouse) (UniProt P56450); assay: 125I-NDP-MSH competitive displacement, HEK293 cells stably expressing mMC4R; here negative = weaker binder than SKY4-48-1
[2] = molecular target: mouse melanocortin-4 receptor (mouse) (UniProt P56450); assay: cell-based or functional assay
[3] = molecular target: mouse melanocortin-3 receptor (mouse) (UniProt P33033); assay: cell-based or functional assay
[4] = molecular target: mouse melanocortin-3 receptor (mouse) (UniProt P33033); assay: 125I-NDP-MSH competitive displacement, HEK293 cells stably expressing mMC3R
[5] = molecular target: mouse melanocortin-4 receptor (mouse) (UniProt P56450); assay: 125I-NDP-MSH competitive displacement, HEK293 cells stably expressing mMC4R

Chain of mouse melanocortin-3 receptor (mouse) (P33033 whole entry): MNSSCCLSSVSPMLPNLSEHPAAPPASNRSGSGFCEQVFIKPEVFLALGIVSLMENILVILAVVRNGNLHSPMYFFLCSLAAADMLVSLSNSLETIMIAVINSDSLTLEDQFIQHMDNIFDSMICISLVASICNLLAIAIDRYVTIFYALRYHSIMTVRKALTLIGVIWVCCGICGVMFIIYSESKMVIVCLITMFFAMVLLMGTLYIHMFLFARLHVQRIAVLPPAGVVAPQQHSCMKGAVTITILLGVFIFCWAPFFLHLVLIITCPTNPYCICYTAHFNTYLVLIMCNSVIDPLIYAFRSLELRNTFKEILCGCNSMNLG
Chain of mouse melanocortin-4 receptor (mouse) (P56450 whole entry): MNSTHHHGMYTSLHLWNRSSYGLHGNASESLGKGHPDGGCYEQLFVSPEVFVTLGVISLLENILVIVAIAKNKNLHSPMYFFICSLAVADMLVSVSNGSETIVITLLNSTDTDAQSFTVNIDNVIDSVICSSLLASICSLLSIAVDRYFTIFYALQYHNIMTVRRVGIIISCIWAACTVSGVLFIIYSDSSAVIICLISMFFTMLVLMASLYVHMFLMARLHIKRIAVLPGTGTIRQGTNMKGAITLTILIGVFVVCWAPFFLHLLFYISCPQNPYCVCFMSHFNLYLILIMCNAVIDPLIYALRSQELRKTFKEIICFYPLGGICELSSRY

- Fold Diff. (IC50 against SKY4-48-1) [1]: -326 fold
- Agonist Activity, % stimulation relative to maximum [2]: 16 % @ 100 µM
- Agonist, % of NDP-MSH maximal response [2]: 16 % @ 100 µM
- Antagonist Ki [2]: > 3.1 µM
- Agonist Activity EC50 [3]: > 100 µM
- Antagonist Activity K [3]: 400 nM
- Antagonist Ki [3]: 0.398 µM
- pA2 (antagonist) [3]: 6.4 pA2
- Fold Diff. (IC50 against SKY4-48-1) [4]: 14 fold
- IC50 [4]: 3.5 µM
- IC50 [5]: 39.5 µM
B1: SKY5-122-2, Ac-DPhe-(pI)Phe-DArg-DHis-NH2 (peptide)
peptide: Ac-[dF][Phe(4-I)][dR][dH]-NH2
SMILES: CC(=O)N[C@H](Cc1ccccc1)C(=O)N[C@@H](Cc1ccc(I)cc1)C(=O)N[C@H](CCCNC(=N)N)C(=O)N[C@H](Cc1c[nH]cn1)C(N)=O
